According to FireProtDB (doi:10.1002/pro.2449):

Conditions: pH 7, transition: 2, reversible: yes, whole UniProt chain shown; for Tm / unfolding enthalpy (calorimetric): Thermal, DSC; for denaturant m value / denaturant midpoint (higher = more stable) / unfolding free energy: 25 °C, Urea
[1] = Kitasatospora aureofaciens, MOPS
[2] = Borreliella burgdorferi, CD, Sodium Phosphate Buffer
[3] = Aspergillus oryzae (strain ATCC 42149 / RIB 40), MOPS

B1: Guanyl-specific ribonuclease Sa wild type, P05798 (protein)
chain: DVSGTVCLSALPPEATDTLNLIASDGPFPYSQDGVVFQNRESVLPTQSYGYYHEYTVITPGARTRGTRRIITGEATQEDYYTGDHYATFSLIDQTC
For B1, the Tm [1] was 48.4 °C and the “unfolding enthalpy (calorimetric)” value [1] was 92 kcal/mol.

B2: Variable large protein wild type, Q5DVG3 (protein)
chain: MNTKKISSAILLTTFFVFINCKSQVADKDDPTNKFYQSVIQLGNGFLDVFTSFGGLVAEAFGFKSDPKKSDVKTYFTTVAAKLEKTKTDLNSLPKEKSDISSTTGKPDSTGSVGTAVEGAIKEVSELLDKLVKAVKTAEGASSGTAAIGEVVDNAAAAKAADKDSVTGIAKGIKEIVEAAGGSKKLKAAAAKGENNKGAGKLFGKAGDAAHGDSEAASKAAGAVSAVSGEQILSAIVKAAAAGDQEGKKPGEAKNPIAAAIGEGDGDAEFNQDGMKKDDQIAAAIALRGMAKDGKFAVKNDEKGKAEGAIKGAAESAVRKVLGAITGLIGDAVSSGLRKVGDSVKAASKETPPALNK
For B2, the denaturant m value [2] was 3.86 kcal/mol/M, the “denaturant midpoint (higher = more stable)” value [2] was 1.19 M and the unfolding free energy [2] was 4.6 kcal/mol.

B3: Guanyl-specific ribonuclease T1 wild type, P00651 (protein)
chain: MMYSKLLTLTTLLLPTALALPSLVERACDYTCGSNCYSSSDVSTAQAAGYQLHEDGETVGSNSYPHKYNNYEGFDFSVSSPYYEWPILSSGDVYSGGSPGADRVVFNENNQLAGVITHTGASGNNFVECT
With B3 the denaturant m value [3] was 1.17 kcal/mol/M, the “denaturant midpoint (higher = more stable)” value [3] was 5.2 M and the unfolding free energy [3] was 6.1 kcal/mol. The Tm [3] was 52.5 °C and the “unfolding enthalpy (calorimetric)” value [3] was 107 kcal/mol.
